The target in this experiment is T1, purified human properdin (human, UniProt P27918 28-469).
T1 construct: also called factor P
The experiment can be described thus: ELISA, properdin coated, normalized 293T supernatants, anti-V5 detection.

From US20110008351A1 (UNIVERSITE LIBRE DE BRUXELLES, published 2011) come the findings set out here.

T1 sequence (P27918 28-469 limits assumed): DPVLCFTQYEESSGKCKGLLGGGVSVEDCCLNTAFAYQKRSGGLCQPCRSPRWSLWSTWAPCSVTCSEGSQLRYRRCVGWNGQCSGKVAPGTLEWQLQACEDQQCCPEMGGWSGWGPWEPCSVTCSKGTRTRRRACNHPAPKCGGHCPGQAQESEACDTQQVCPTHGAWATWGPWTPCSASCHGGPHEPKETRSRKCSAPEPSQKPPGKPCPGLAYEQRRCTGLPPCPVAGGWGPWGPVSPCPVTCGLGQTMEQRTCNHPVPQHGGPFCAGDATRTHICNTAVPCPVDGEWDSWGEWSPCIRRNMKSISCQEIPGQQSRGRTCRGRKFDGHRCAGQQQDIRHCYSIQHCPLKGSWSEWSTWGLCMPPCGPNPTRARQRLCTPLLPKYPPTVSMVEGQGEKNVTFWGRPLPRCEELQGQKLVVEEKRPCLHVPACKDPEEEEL

B1: recombinant Rhipicephalus appendiculatus histamine-binding protein 2 (RaHBP2) (other, UniProt O77421 20-190, looked up, not shown: small tags and cut ends)
chain: NQPDWADEAANGAHQDAWKSLKADVENVYYMVKATYKNDPVWGNDFTCVGVMANDVNEDEKSIQAEFLFMNNADTNMQFATEKVTAVKMYGYNRENAFRYETEDGQVFTDVIAYSDDNCDVIYVPGTDGNEEGYELWTTDYDNIPANCLNKFNEYAVGRETRDVFTSACLE
notes: Negative control, supernatant of transfected 293T cells
On to B1, for which the binding result is reported as “no binding”.
